Test [1] deals with T1, recombinant human EGFR/ErbB1/HER1 with C-terminal His tag, Cy5-labeled (human, UniProt P00533 25-645, Cy5 label (reacted with Cy5 Mono NHS Ester; sites not stated)).
T1 construct: Commercial protein; also called Cy5-EGFR; Cy5-labeled EGFR antigen; not shown: C-terminal His tag
Kind of test: competitive TR-FRET (Eu-amivantamab/Cy5-EGFR), EC50 ratio vs Reference Material; Ex. 11 drug product, 0 months, 5 C table. An excerpt: (§1) In this procedure, varying concentrations of unlabeled bispecific EGFR-cMet antibody sample compete with donor fluorophore (Europium (Eu) chelate) labeled bispecific EGFR-cMet antibody for binding to an acceptor fluorophore (Cy5)-labeled EGFR antigen. Excitation of the donor fluorophore results in a transfer of energy to the bound acceptor fluorophore (FRET process). The resultant FRET is detected by emission of light at 665 nm using a microplate reader capable of measuring time-resolved fluorescence. Sample dose response curves are compared to the RM.
(§2) EGFR Binding Materials and Methods. Certified commercial EGFR, a recombinant human EGFR/ErbB1/HER1 with C-terminal His tag is reacted with certified commercial Cy5 Mono NHS Ester to produce Cy5-labeled EGFR. Validated bispecific EGFR-cMet antibody is reacted with certified commercial Europium (Eu) chelate to produce Eu-labeled bispecific EGFR-cMet antibody. […] Fluorescence is then measured by spectrophotometry at 665 nm, plotted against antibody concentration and analyzed by a four-parameter logistic model. The antibody concentration required to obtain half of the maximum fluorescence response (EC50) is determined for RM, assay control and samples. The potencies of assay control and samples are calculated based on the ratio of the sample (or control) and RM EC50 values and reported as a percentage activity relative to the RM.

Test [2] addresses T1, recombinant human EGFR/ErbB1/HER1 with …. Put plainly: competitive TR-FRET (Eu-amivantamab/Cy5-EGFR), EC50 ratio vs Reference Material; Ex. 2 Formulation 1 (10 mM histidine), 3 months at 5 C.
Text: as §1, §2

Test [3] shares this target. Kind of test: competitive TR-FRET (Eu-amivantamab/Cy5-EGFR), EC50 ratio vs Reference Material; Ex. 2 Formulation 2 (50 mM histidine), 1 month at 40 C.
Text: as §1, §2

Test [4] addresses T2, recombinant cMet/HGFR with c-terminal His-tag, Cy5-labeled (UniProt P08581 25-932, limits assumed, Cy5 label (reacted with Cy5 Mono NHS Ester; sites not stated)).
T2 construct: Commercial protein; also called Cy5-c-MET; Cy5-labeled c-MET antigen; not shown: C-terminal His-tag
Kind of test: competitive TR-FRET (Eu-amivantamab/Cy5-c-MET), EC50 ratio vs Reference Material; Ex. 2 Formulation 1 (10 mM histidine), 1 month at 40 C.
Text: (§3) In this procedure, varying concentrations of unlabeled bispecific EGFR-cMet antibody sample compete with donor fluorophore (Europium (Eu) chelate) labeled bispecific EGFR-cMet antibody for binding to an acceptor fluorophore (Cy5)-labeled c-MET antigen. Excitation of the donor fluorophore results in a transfer of energy to the bound acceptor fluorophore (FRET process). The resultant FRET is detected by emission of light at 665 nm using a microplate reader capable of measuring time-resolved fluorescence. Sample dose response curves are compared to the Reference Material (RM).
as §2, with “c-MET Binding” for “EGFR Binding”, “commercial cMet,” for “commercial EGFR,”, “recombinant cMet/HGFR” for “recombinant human EGFR/ErbB1/HER1”, “with c-terminal His-tag” for “with C-terminal His tag”, “Cy5-labeled c-MET.” for “Cy5-labeled EGFR.”, “produce Eu labeled” for “produce Eu-labeled”

Test [5] addresses T2, recombinant cMet/HGFR with c-terminal …. Put plainly: competitive TR-FRET (Eu-amivantamab/Cy5-c-MET), EC50 ratio vs Reference Material; Ex. 3 acetate formulation, 6 months at 25 C, untreated control.
Text: as §3
as §2, with “c-MET Binding” for “EGFR Binding”, “commercial cMet,” for “commercial EGFR,”, “recombinant cMet/HGFR” for “recombinant human EGFR/ErbB1/HER1”, “with c-terminal His-tag” for “with C-terminal His tag”, “Cy5-labeled c-MET.” for “Cy5-labeled EGFR.”, “produce Eu labeled” for “produce Eu-labeled”

For test [6] the target is unchanged. Kind of test: competitive TR-FRET (Eu-amivantamab/Cy5-c-MET), EC50 ratio vs Reference Material; Ex. 3 acetate formulation, 6 months at 25 C then shaking up to 72 h.
Text: as §3
as §2, with “c-MET Binding” for “EGFR Binding”, “commercial cMet,” for “commercial EGFR,”, “recombinant cMet/HGFR” for “recombinant human EGFR/ErbB1/HER1”, “with c-terminal His-tag” for “with C-terminal His tag”, “Cy5-labeled c-MET.” for “Cy5-labeled EGFR.”, “produce Eu labeled” for “produce Eu-labeled”

B1: amivantamab (bispecific antibody, human IgG1, kappa)
heavy 1: not shown
light 1: not shown
heavy 2: not shown
light 2: DIQMTQSPSSVSASVGDRVTITCRASQGISNWLAWFQHKPGKAPKLLIYAASSLLSGVPSRFSGSGSGTDFTLTISSLQPEDFATYYCQQANSFPITFGQGTRLEIKRTVAAPSVFIFPPSDEQLKSGTASVVCLLNNFYPREAKVQWKVDNALQSGNSQESVTEQDSKDSTYSLSSTLTLSKADYEKHKVYACEVTHQGLSSPVTKSFNRGEC
notes: The samples tested were high concentration (160 mg/mL) formulations, fresh or stored or stressed; also called JNJ-61186372; bispecific EGFR-cMet antibody
With B1, the “EGFR Binding activity relative to Reference Material (%)” value in test [1] was determined as 89%. Further, the figures for the “EGFR Binding % activity relative to RM” value in test [2] and in test [3] were 102% and 68%, respectively. Further, the “cMET Binding % activity relative to RM” value in test [4] was 96%; in test [5], 99%; in test [6], 97%.

The values are drawn from patent publication US20240034813A1 (Janssen / Centocor, published 2024).
